Results as given in patent US5792640.

What was measured:
[1] = tested on: ZF-QQR (synthetic construct); assay: EMSA; details: CITED ref 34; exact hybrid used in cited work not given; cited from earlier work
[2] = tested on: ZF-QQR-FN (consensus zinc fingers-FokI cleavage domain fusion) (synthetic construct); assay: EMSA; details: apparent Kd
[3] = tested on: ZF-QQR-FN (consensus zinc fingers-FokI cleavage domain fusion) (synthetic construct); assay: cleavage_in_vitro; details: DNA strand cleaved, ~100-fold slower than duplex; RNA strand not cleaved
[4] = biological target: ZF-Sp1C (synthetic construct) (UniProt P08047); assay: EMSA; details: CITED ref 34; DNA-RNA hybrid; cited from earlier work
ZF-Sp1C (synthetic construct), sequence (P08047 626-708): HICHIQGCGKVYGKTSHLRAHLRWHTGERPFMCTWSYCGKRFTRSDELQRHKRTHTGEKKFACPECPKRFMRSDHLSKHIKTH

| Sequence | Kd [1] [nM] | Kd [2] [nM] | activity [3] [%] | Kd [4] [nM] |
| --- | --- | --- | --- | --- |
| GAGCTCCTTTGGATCCAAGCTTCCCGGGGAAGAATTCGAGGAGGCTCTCGAGGTCGACTTCCTCTAGAGGTACC / GGUACCUCUAGAGGAAGUCGACCUCGAGAGCCUCCUCGAAUUCUUCCCCGGGAAGCUUGGAUCCAAACCAGCUC [QQR site DNA-RNA hybrid] | 2.8 | 3 | 1 |  |
| GGGGCGGGG [Sp1C site DNA-RNA hybrid] |  |  |  | 40 |
